Data on six molecules can be found in patent publication US20050037969A1 (ARBOR VITA, published 2005).

Ends that are not written are not given here. * marks the point of attachment. Biotin = O=C1N[C@H]2[C@H](CS[C@H]2CCCCC(=O)*)N1

B1: CD5 C-terminal peptide AA49L (peptide)
peptide: Biotin-SMQPDNSSDSDYDLHGAQRL
notes: Only the last four residues are seen in the excerpts
B2: CC CKR-3 C-terminal peptide AA43L (peptide)
peptide: Biotin-LERTSSVSPSTAEPELSIVF
notes: as for B1
B3: CD62E C-terminal peptide AA48L (peptide)
peptide: Biotin-SSSQSLESDGSYQKPSYIL
notes: as for B1
B4: CD148 C-terminal peptide AA19L, biotinylated (peptide)
peptide: Biotin-ENLAPVTTFGKTNGYIA
notes: also called CD148 (DEP-1)
B5: CD114 (G-CSFR) C-terminal peptide AA27L (peptide)
peptide: Biotin-LNFPLLQGIRVHGMEALGSF
notes: as for B1
B6: FasL C-terminal peptide AA23L-M, biotinylated (peptide)
peptide: Biotin-SSKSKSSEESQTFFGLYKL
modifications: not fully specified
notes: also called FasLigand; Fas ligand

T7 sequence (Q92743 other isoform, or with tags, fused parts or gaps limits assumed): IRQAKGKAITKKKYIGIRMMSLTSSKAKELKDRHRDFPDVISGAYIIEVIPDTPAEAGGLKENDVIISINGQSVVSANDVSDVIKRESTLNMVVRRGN

The target in the first experiment is T1, KIAA0807 (PDZ domain)-GST fusion protein (human, UniProt Q6P0Q8 1104-1192).
T1 construct: also called K807; KIAA807; not shown: glutathione S-transferase encoded by vector pGEX-3X (Pharmacia)
T1 sequence: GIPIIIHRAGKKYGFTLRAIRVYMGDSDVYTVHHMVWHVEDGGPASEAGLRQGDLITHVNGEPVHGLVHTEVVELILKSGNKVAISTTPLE
The experiment in a line: A/G assays.
As to B1, the binding result is listed as “no binding”.
Still for that read-out and setting: for B2 the value was “no binding”; for B3, “no binding”.
With B4, the binding result is “no binding”.
With B5, the binding result is listed as “no binding”.
With B6, the binding result is “no binding”.

For the next experiment, the target named is T2, GST-MPP1 PDZ domain fusion protein (Homo sapiens (Human), UniProt Q00013 67-152).
T2 construct: also called p55; 55 Kd erythrocyte membrane protein; not shown: glutathione S-transferase encoded by vector pGEX-3X (Pharmacia)
T2 sequence: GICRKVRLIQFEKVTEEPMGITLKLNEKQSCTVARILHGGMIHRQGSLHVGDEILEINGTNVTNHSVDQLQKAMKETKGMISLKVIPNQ
Kind of experiment: A/G assays.
Regarding B1, the binding result is “no binding”.
For B2, the binding result is recorded as “no binding”.
On the same count and under the same terms, for B3 the value was “no binding”; for B4, “no binding”; for B5, “no binding”.
Take B6: the binding result is recorded as “no binding”.

For another experiment, the target named is T3, MINT3 PDZ-GST fusion protein.
T3 construct: Order of GST and PDZ part and limits not seen in the excerpts
T3 chain: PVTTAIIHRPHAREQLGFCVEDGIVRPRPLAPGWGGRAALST
Kind of experiment: A/G assays.
For B1, the binding result is reported as “no binding”.
As for B2, the binding result is “no binding”.
B3: the binding result was “no binding”.
On the same count and under the same terms, the same measure for B4: “no binding”; for B5: “no binding”.
As for B6, the binding result is “no binding”.

The next experiment deals with T4, NOS1 PDZ-GST fusion protein (Homo sapiens (Human), UniProt P29475 11-100).
T4 construct: Order of GST and PDZ part and limits not seen in the excerpts
T4 sequence (P29475 11-100 limits assumed): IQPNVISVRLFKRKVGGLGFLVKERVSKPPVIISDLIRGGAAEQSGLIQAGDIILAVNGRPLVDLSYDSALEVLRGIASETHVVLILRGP
Kind of experiment: A/G assays.
For B1, the binding result is on record as “no binding”.
As to B2, the binding result is listed as “no binding”.
As for B3, the binding result was “no binding”.
Consider B4, for which the binding result was “no binding”.
On to B5, for which the binding result is given as “no binding”.
As to B6, the binding result was “no binding”.

For another experiment, the target named is T5, X11β PDZ-GST fusion protein (Rattus norvegicus (Rat), UniProt O35431 560-745).
T5 construct: Order of GST and PDZ part and limits not seen in the excerpts
T5 chain: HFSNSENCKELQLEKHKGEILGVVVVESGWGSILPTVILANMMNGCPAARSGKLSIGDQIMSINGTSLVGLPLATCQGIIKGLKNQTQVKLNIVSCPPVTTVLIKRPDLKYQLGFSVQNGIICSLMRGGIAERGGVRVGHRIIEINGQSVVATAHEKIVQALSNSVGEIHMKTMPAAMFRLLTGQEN
Kind of experiment: A/G assays.
In the case of B1, the binding result is “no binding”.
For B2, the binding result is reported as “no binding”.
On to B3, for which the binding result is “no binding”.
Take B4: the binding result was “no binding”.
For B5, the binding result is “no binding”.
Same read-out and setting: the same measure for B6: “no binding”.

For another experiment, the target named is T6, GST-TAX-IP40 PDZ domain fusion protein (human, UniProt Q6B4M5 150-252 (rat entry)).
T6 construct: also called TAX40; not shown: glutathione S-transferase encoded by vector pGEX-3X (Pharmacia)
T6 sequence: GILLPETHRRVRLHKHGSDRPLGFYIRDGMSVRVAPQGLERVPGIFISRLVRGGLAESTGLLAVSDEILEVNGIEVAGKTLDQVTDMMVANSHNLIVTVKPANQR
Kind of experiment: A/G assays.
For the molecule B1, the binding result is “no binding”.
For the molecule B2, the binding result is on record as “no binding”.
For the molecule B3, the binding result is “no binding”.
For the molecule B4, the binding result was “no binding”.
Same read-out and setting: the same measure for B5: “no binding”; for B6: “no binding”.

Another experiment concerns the target T7, NSP PDZ-GST fusion protein (Homo sapiens (Human), UniProt Q92743 370-466).
T7 construct: The label NSP is not explained in the excerpts
The experiment in a line: A/G assays.
In the case of B1, the binding result is “no binding”.
With B2, the binding result is reported as “no binding”.
B3: the binding result is recorded as “no binding”.
Same read-out and setting: the same measure for B4: “no binding”; for B5: “no binding”; for B6: “no binding”.

The target in a further experiment is T8, GST-RGS12 PDZ domain fusion protein (human, UniProt O14924 17-85).
T8 construct: also called human regulator of G-protein signalling 12; not shown: glutathione S-transferase encoded by vector pGEX-3X (Pharmacia)
T8 sequence: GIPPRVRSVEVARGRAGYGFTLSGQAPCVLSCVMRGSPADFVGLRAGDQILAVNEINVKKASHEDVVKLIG
Kind of experiment: A/G assays.
On to B1, for which the binding result is “no binding”.
On the same count and under the same terms, for B2 the value was “no binding”; for B3, “no binding”.
B4: the binding result was “no binding”.
Still for that read-out and setting: the same measure for B5: “no binding”; for B6: “no binding”.

The target in another experiment is T9, GST-LIM protein PDZ domain fusion protein (Human, UniProt Q96HC4 2-85).
T9 construct: also called Human LIM protein; not shown: glutathione S-transferase encoded by vector pGEX-3X (Pharmacia)
T9 sequence: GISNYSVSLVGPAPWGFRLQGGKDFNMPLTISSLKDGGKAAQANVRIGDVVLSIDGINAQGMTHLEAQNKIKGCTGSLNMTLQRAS
The experiment in a line: A/G assays.
As for B1, the binding result is reported as “no binding”.
For B2, the binding result was “no binding”.
B3: the binding result is on record as “no binding”.
The same measure, in the same setting: the same measure for B4: “no binding”; for B5: “no binding”; for B6: “no binding”.

The target in another experiment is T10, GST-mouse syntenin fusion protein (Mus musculus, UniProt O08992 108-286).
T10 construct: also called Mus musculus Syntenin; not shown: glutathione S-transferase encoded by vector pGEX-3X (Pharmacia)
T10 chain: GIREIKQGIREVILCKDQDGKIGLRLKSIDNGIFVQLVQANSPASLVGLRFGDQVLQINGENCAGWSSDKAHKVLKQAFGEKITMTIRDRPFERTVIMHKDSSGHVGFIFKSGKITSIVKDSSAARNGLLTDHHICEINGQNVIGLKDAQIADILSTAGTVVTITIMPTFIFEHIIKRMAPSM
Kind of experiment: A/G assays.
Turning to B1, the binding result is “no binding”.
For B2, the binding result is given as “no binding”.
As for B3, the binding result is on record as “no binding”.
On the same count and under the same terms, the same measure for B4: “no binding”.
As for B5, the binding result is recorded as “no binding”.
As to B6, the binding result is given as “no binding”.

The target in another experiment is T11, GST-PDZK1 fusion protein (PDZ domains 2-4) (Homo sapiens, UniProt Q5T2W1 134-457).
T11 construct: not shown: glutathione S-transferase encoded by vector pGEX-3X (Pharmacia)
T11 sequence: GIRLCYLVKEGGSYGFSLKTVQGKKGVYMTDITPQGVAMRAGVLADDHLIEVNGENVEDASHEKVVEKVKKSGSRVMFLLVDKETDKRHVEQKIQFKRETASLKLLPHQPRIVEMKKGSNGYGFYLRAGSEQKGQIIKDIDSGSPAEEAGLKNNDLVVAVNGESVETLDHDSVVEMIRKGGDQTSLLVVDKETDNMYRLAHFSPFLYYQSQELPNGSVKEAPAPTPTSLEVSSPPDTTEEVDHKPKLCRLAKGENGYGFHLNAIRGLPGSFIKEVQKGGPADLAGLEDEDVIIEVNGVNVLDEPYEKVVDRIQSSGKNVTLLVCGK
The experiment in a line: A/G assays.
For the molecule B1, the binding result is given as “no binding”.
Consider B2, for which the binding result is “no binding”.
For the molecule B3, the binding result is on record as “no binding”.
On the same count and under the same terms, the same measure for B4: “no binding”; for B5: “no binding”; for B6: “no binding”.

A further experiment addresses T12, GST-cytohesin binding protein PDZ domain fusion protein (Homo sapiens (Human), UniProt O60759 74-165).
T12 construct: also called CBP; not shown: glutathione S-transferase encoded by vector pGEX-3X (Pharmacia)
T12 sequence: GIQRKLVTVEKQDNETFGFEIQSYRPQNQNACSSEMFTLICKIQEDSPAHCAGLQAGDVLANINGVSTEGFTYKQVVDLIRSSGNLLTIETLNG
The experiment in a line: A/G assays.
As for B1, the binding result is recorded as “no binding”.
B2: the binding result is recorded as “no binding”.
As to B3, the binding result is “no binding”.
For the molecule B4, the binding result was “no binding”.
With B5, the binding result is given as “no binding”.
Regarding B6, the binding result is on record as “no binding”.

The next experiment concerns the target T13, GST-PTN-4 PDZ domain fusion protein (Homo sapiens (Human), UniProt P29074 517-605).
T13 construct: also called protein-tyrosine phosphatase meg1; not shown: glutathione S-transferase encoded by vector pGEX-3X (Pharmacia)
T13 sequence: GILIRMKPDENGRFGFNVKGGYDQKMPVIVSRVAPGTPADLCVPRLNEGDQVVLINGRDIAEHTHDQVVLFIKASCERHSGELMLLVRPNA
The experiment in a line: A/G assays.
Regarding B1, the binding result is recorded as “no binding”.
With B2, the binding result is on record as “no binding”.
On to B3, for which the binding result is reported as “no binding”.
On to B4, for which the binding result is “no binding”.
B5: the binding result is “no binding”.
Still for that read-out and setting: the same measure for B6: “no binding”.

Another experiment has as its target T14, K559 PDZ-GST fusion protein (Homo sapiens (Human), UniProt Q9Y6V0 4489-4593).
T14 construct: Order of GST and PDZ part and limits not seen in the excerpts
T14 sequence: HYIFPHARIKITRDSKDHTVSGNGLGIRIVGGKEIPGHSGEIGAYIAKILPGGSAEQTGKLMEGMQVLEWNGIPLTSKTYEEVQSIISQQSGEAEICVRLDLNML
The experiment in a line: A/G assays.
In the case of B1, the binding result is given as “no binding”.
For the molecule B2, the binding result is given as “no binding”.
With B3, the binding result is listed as “no binding”.
Turning to B4, the binding result was “no binding”.
The same measure, in the same setting: the same measure for B5: “no binding”.
The same measure, in the same setting: for B6 the value was “no binding”.

For the next experiment, the target named is T15, GST-CASK PDZ domain fusion protein (Homo sapiens, UniProt O14936 486-575).
T15 construct: also called Homo sapiens CASK protein
T15 sequence: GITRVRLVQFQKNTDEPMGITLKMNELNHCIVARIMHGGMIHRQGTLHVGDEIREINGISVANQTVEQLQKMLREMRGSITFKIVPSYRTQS
Kind of experiment: A/G assays.
As to B1, the binding result was “no binding”.
As to B2, the binding result was “no binding”.
Still for that read-out and setting: for B3 the value was “no binding”; for B4, “no binding”.
B5: the binding result is recorded as “no binding”.
On the same count and under the same terms, the same measure for B6: “no binding”.
